Measured values as given in paper PMC3605791 (Nature structural & molecular biology, 2012).
Where a chain is given by its changes, count along the chain named. Names may count otherwise. Values belong to the molecule of their own block, whether it stands above or below them.

Tests used:
[1] = biological target: Rab38:GTP or Rab32:GTP
[2] = biological target: VAMP7 longin domain (Mus musculus) (UniProt P70280); settings: cited from earlier work
[3] = biological target: T1, Varp(658–921)His6 (human, UniProt Q96NW4 658-921); assay: pull-down
T1 sequence (Q96NW4 658-921): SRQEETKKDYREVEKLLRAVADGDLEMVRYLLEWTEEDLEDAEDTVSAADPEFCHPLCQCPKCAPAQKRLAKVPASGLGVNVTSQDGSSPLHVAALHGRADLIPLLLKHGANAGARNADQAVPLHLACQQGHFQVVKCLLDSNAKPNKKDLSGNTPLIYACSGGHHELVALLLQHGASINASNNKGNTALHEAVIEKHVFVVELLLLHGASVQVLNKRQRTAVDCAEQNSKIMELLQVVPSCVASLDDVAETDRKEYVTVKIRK

[4] = biological target: T1, Varp(658–921)His6; assay: ITC

Molecule: Varp (construct not stated, KD with Rab38:GTP or Rab32:GTP) (from UniProt Q96NW4 1-1050) (natural protein)
Kd [1]: 2 to 5 µM

Molecule: Hrb (from UniProt P52594)
Kd [2]: 10 µM

B2: VAMP7 D69A E71F S73D (domain or fragment)
chain: MAILFAVVARGTTILAKHAWCGGNFLEVTEQILAKIPSENNKLTYSHGNYLFHYICQDRIVYLCITDDAFFRDRAFSFLNEVKKRFQTTYGSRAQTALPYAMNSEFSSVLAAQLKHHSENKSLDKVMETQAQVDELKGIMVRNIDLVAQRGERLELLIDKTENLVDSSVTFKTTSRNLARAMCMKNIK
Kd [4]: > 300 µM

B3: VAMP7 CD (1–188) (domain or fragment)
chain: B2 chain with A69D, F71E, D73S
Kd [4]: 2.3 µM

The remaining lines, values ahead:

binding result [3]: binds
B1: GSTVAMP7 residues 1–160 (domain or fragment)
chain: MAILFAVVARGTTILAKHAWCGGNFLEVTEQILAKIPSENNKLTYSHGNYLFHYICQDRIVYLCITDDDFERSRAFSFLNEVKKRFQTTYGSRAQTALPYAMNSEFSSVLAAQLKHHSENKSLDKVMETQAQVDELKGIMVRNIDLVAQRGERLELLIDK

Kd [4]: > 300 µM
B4: VAMP7 R72A (domain or fragment)
chain: B2 chain with A69D, F71E, R72A, D73S
